Test results published in patent publication US5126322A, “Pancreatic secretory tryspin inhibitor and variants thereof produced by a recombinant host therefore and pharmaceutical use thereof” (Bayer Aktiengesellschaft, priority 1987, dated 1992).

Key:
Assay type in all cases: biochemical
[1] = molecular target: T1, Pancreatic Elastase (porcine) (Sus scrofa, UniProt P00772); assay: Enzyme inhibition assay, pancreatic elastase, release of p-nitroaniline from Ac-Ala-Ala-Pro-Ala-pNA; settings: 500 ng enzyme/assay
T1 construct: purchased Elastin Products Company, Inc
Method: (§1) Human leukocyte elastase (HLE) and porcine pancreas elastase (PPE) were obtained from Elastin Products Company, Inc. P.O. Box 147, Pacific, Miss. 63069/USA.
(§2) The substrates: MeOSuc-Ala-Ala-Pro-Val-pNA (HLE), Ac-Ala-Ala-Pro-Ala-pNA and Suc-Ala-Ala-Ala-pNA (PPE and Suc-Ala-Ala-Pro-Phe-pNA (CHT) were obtained from Bachem, Bubendorf/Switzerland.
(§3) Culture filtrates were treated as follows: 10 μl TWEEN 80 solution (0.5%) and 50 μl perchloric acid (70%) were added to 1 ml of culture filtrate. After 20 min, these samples were centrifuged, and the clear supernatants were neutralized by the addition of 225 μl saturated solution of tris base. Aliquots of these solutions were taken to determine inhibitory activities.
(§4) Generally, the samples were diluted with the appropriate buffer volume, and the enzyme was added. After the preincubation time, substrate was added (substrates are dissolved in DMSO in a concentration of 0.1M and diluted with buffer to give the concentration of the stock solution). The release of p-nitroaniline from the substrates was measured at 405 nm either continuously or after quenching the reaction by adding acetic acid. 100%- values were determined by running samples where inhibitors were omitted. Percentage inhibition was calculated using the formula: [formula] […]

[2] = molecular target: T2, α-Chymotrypsin (bovine) (Bos taurus, UniProt P00766); assay: Enzyme inhibition assay, α-chymotrypsin, release of p-nitroaniline from Suc-Ala-Ala-Pro-Phe-pNA; settings: 50 ng enzyme/assay
T2 construct: purchased E. Merck, Darmstadt
Method: Bovine α-chymotrypsin (CHT) was obtained from E. Merck, Darmstadt.
as §2, §3, §4

[3] = molecular target: T3, Granulocytic Elastase (human) (Homo sapiens, UniProt P08246); assay: Enzyme inhibition assay, leukocyte (granulocytic) elastase, release of p-nitroaniline from MeOSuc-Ala-Ala-Pro-Val-pNA; settings: 120 ng enzyme/assay
T3 construct: purchased Elastin Products Company, Inc
T3 sequence (P08246 30-267): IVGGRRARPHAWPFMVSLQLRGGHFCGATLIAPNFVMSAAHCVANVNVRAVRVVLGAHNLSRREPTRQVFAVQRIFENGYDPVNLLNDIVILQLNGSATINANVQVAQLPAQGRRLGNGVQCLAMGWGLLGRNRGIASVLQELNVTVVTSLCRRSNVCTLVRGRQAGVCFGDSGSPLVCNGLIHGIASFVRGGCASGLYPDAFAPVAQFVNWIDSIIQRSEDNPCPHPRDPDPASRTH
Method: as §1, §2, §3, §4

T1 sequence (P00772 27-266): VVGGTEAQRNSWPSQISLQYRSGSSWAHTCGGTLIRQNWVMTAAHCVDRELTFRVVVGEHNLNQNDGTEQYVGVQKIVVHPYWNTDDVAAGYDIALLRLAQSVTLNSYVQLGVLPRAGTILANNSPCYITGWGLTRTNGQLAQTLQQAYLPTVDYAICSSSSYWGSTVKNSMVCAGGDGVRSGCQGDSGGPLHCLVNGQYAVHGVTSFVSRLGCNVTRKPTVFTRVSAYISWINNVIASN

Substance | amount of inhibitor giving 50% inhibition, Pancreatic Elastase (porcine) [1] [ng] | amount of inhibitor giving 50% inhibition, α-Chymotrypsin (bovine) [2] [ng] | amount of inhibitor giving 50% inhibition, Granulocytic Elastase (human) [3] [ng]
Leu^18 -Ala^32 -PSTI (DSLGREAKCYNELNGCTLIYDPVCGTDGNTYANECVLCFENRKRQTSILIQKSGPC; UniProt P00995 24-79, looked up, variant K18L P32A) [PSTI-1A, PSTI variant from cyanogen bromide cleavage of the PSTI-1A minifusion protein] | 1200 | 100 | 18
Tyr^18 -Glu^19 -Arg^21 -PSTI (DSLGREAKCYNELNGCTYEYRPVCGTDGNTYPNECVLCFENRKRQTSILIQKSGPC; UniProt P00995 24-79, looked up, variant K18Y I19E D21R) [PSTI-3P] | – | 7 | > 5000
Asn^-13 -Ala^-12 -Glu^-11 -Thr^-10 -Ala^-9 -His^-8 -Lys^-7 -Ser^-6 -Asn^-5 -Glu^-4 -Val^-3 -Thr^-2 -Met^-1 -Leu^18 -Glu^19 -Arg^21 -Ala^32 -PSTI ({Asn-Ala-Glu-Thr-Ala-H2N}-KSNEVTMDSLGREAKCYNELNGCTLEYRPVCGTDGNTYANECVLCFENRKRQTSILIQKSGPC; ends and bridges not checked; UniProt P00995 24-79, looked up, variant K18L I19E D21R P32A) [PSTI-4A [Minifusion]] | 68 | 6 | 15
Met^-1 -Leu^18 -Glu^19 -Arg^21 -Ala^32 -PSTI (DSLGREAKCYNELNGCTLEYRPVCGTDGNTYANECVLCFENRKRQTSILIQKSGPC; N-terminal Met; UniProt P00995 24-79, looked up, variant K18L I19E D21R P32A) [Met-PSTI-4A] | 73 | 8 | 16

Now from value to substance:

amount of inhibitor giving 50% inhibition, Pancreatic Elastase (porcine) [1] [ng] | amount of inhibitor giving 50% inhibition, α-Chymotrypsin (bovine) [2] [ng] | amount of inhibitor giving 50% inhibition, Granulocytic Elastase (human) [3] [ng] | Substance
75 | 7 | 17 | Leu^18 -Glu^19 -Arg^21 -Ala^32 -PSTI (DSLGREAKCYNELNGCTLEYRPVCGTDGNTYANECVLCFENRKRQTSILIQKSGPC; UniProt P00995 24-79, looked up, variant K18L I19E D21R P32A) [PSTI-4A, PSTI variant obtained from the minifusion protein by BrCN-cleavage]
70 | 100 | 15 | Val^18 -Glu^19 -Arg^21 -PSTI (DSLGREAKCYNELNGCTVEYRPVCGTDGNTYPNECVLCFENRKRQTSILIQKSGPC; UniProt P00995 24-79, looked up, variant K18V I19E D21R) [PSTI-5P]
